Source: article PMC4228979, “Conserved cis-regulatory modules in promoters of genes encoding wheat high-molecular-weight glutenin subunits”

T1: His-SPA (Storage Protein Activator, bZIP) (UniProt A0A9R1IS55 1-409)
T1 sequence: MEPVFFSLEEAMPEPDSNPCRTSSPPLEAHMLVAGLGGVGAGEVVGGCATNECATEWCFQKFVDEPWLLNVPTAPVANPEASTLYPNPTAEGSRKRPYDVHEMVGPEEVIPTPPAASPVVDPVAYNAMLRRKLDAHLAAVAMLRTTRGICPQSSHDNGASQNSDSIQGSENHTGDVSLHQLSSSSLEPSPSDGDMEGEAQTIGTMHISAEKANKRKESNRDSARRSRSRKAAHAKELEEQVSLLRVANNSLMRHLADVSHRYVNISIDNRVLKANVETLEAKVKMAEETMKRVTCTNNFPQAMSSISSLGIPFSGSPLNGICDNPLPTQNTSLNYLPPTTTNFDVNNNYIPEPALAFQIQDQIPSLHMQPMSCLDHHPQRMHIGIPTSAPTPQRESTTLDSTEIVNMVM

B1: mutated G-box (dsDNA)
DNA 1: GCCCATTCTCTGGCTTTAGCAGACC
DNA 2: GGTCTGCTAAAGCCAGAGAATGGGC
B2: GLM2 (-626) (dsDNA)
DNA 1: ATAGATATTGTGAGTCAGCATGGAT
DNA 2: ATCCATGCTGACTCACAATATCTAT
B3: glm1 (dsDNA)
DNA 1: ATAGATGTTTTTATTAATTGGATAG
DNA 2: CTATCCAATTAATAAAAACATCTAT

Target: T1, His-SPA (Storage Protein Activator, …)
Test: EMSA; 10 mM Tris pH 7.5, 100 mM KCl, 2 mM DTT, 2 mM EDTA, 10% glycerol, 0.05% nonyl phenoxypolyethoxylethanol, 0.5 mM PMSF, 100 ng/uL poly(dI.dC), 250 ng/uL fish sperm DNA; 20 fmol probe, 560 ng-4 ug protein in 20 uL; 30 min, room temperature; gel at 4 C
Conditions: protein: recombinant; tags: His tag (pDEST17); chain copies: 2; label: 3' biotin on each strand; blunt

| Binder | binding result |
| --- | --- |
| B1 | no binding |
| B2 | binds |
| B3 | no binding |
